Positions count from the first letter of the chain named. Each block holds one molecule with its values, some of them ahead of it. No end group written: not given here.
Assays:
[1] = test system: E13 chick DRG neurons; experiment: AP fusion protein binding to dissociated E13 chick DRG neurons
Text: FIG. 1E. Binding of AP fused Amino-Nogo fragments to dissociated E13 chick DRG neurons. Conditioned media from HEK293T cells containing AP fusion protein as indicated were applied to dissociated E13 chick DRG neurons and bound AP was stained.
If these Amino-Nogo fragments are to play a role in regulating neurite outgrowth then they would be expected to bind to neuronal processes. Previously, we have shown that AP-Nogo-66 binds to NgR on DRG processes (Fournier, A. E., et al., Nature 409:341-346 (2001)).

[2] = target: T1, NgR (Homo sapiens, UniProt Q9BZR6); experiment: AP fusion protein binding to NgR expressing COS-7 cells; details: AP fused Amino-Nogo fragments in conditioned media on NgR expressing COS-7 cells; 'No binding at' cells continue on the next line: AmNg A 150 nM; a.a. 1000-1018, a.a. 1005-1018, Amino of NgC 25 nM; a.a. 950-1004 50 nM; Amino of NgB 100 nM
T1 construct: expressed in transfected cells; host or cells: COS-7
T1 sequence (Q9BZR6 27-447): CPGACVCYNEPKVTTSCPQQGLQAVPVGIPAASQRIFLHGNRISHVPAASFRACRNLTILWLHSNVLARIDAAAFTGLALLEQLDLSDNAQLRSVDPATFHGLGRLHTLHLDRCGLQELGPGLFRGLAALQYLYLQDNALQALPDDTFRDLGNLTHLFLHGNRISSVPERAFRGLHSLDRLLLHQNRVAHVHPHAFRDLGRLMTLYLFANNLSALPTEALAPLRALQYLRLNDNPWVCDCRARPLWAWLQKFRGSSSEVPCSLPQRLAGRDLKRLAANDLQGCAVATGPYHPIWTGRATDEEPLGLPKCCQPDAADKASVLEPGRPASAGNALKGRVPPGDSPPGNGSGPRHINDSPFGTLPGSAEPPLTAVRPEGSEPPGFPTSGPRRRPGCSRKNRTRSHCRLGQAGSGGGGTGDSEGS
Text: Several alkaline phosphatase (AP) fusion proteins containing various Nogo-A segments derived from regions between the amino terminus and the first hydrophobic segment were examined to identify the mechanism of Amino-Nogo-A action. To generate additional AP fusion proteins, human amino Nogo fragments were amplified and ligated to the pcAP6 vector digested with restriction enzymes EcoRI and XhoI as described (Fournier, A. E., et al., Nature 409:341-346 (2001)). Plasmids were then transfected into HEK293T cells and conditioned media were collected after 7 days. None of these fragments bind with high affinity to non-transfected COS-7 cells. […] This binding is saturable with a Kd indistinguishable from that for AP-Nogo-66 association with NgR (Table I). To better define the region responsible for Amino-Nogo interaction with NgR, a range of truncation mutants of Amino-Nogo were examined as AP fusion proteins. […] In fact, the NgR-interacting segment of Amino-Nogo is fully accounted for in the extreme carboxyl 24 amino acids (aa 995-1018, Amino-Nogo-A-24) (Table I and FIG. 1D). […] We named this domain (aa 995-1013) as Amino-Nogo-A-19.
Binding Kds for AP fused Amino-Nogo fragments were measured by applying conditioned media containing AP fusion protein to NgR expressing COS-7 cells. Bound AP was stained and measured.
It has been recognized that the Amino-Nogo-A protein inhibits non-neuronal cell spreading and axonal outgrowth when the protein is substrate bound (Chen, M. S., et al., Nature 403:434-439 (2000); Fournier, A. E., et al., Nature 409:341-346 (2001)). […] The later domain has been termed Δ20. To determine whether the NgR-interacting aa of Amino-Nogo-A described in Example 1 regulate cell spreading and axonal outgrowth, various fragments were expressed as GST fusion proteins and purified from E. coli. To generate GST fusion proteins, amino Nogo fragments were cloned in pGEX2T (Amersham Pharmacia). Native and soluble GST fusion proteins were expressed and purified as described (GrandPre, T., et al., Nature 403:439-444 (2000)). COS-7 binding assays were done as described (Fournier, A. E., et al., Nature 409:341-346 (2001)). Bound AP to COS-7 cells was measured using NIH image software. Fibroblast spreading and cDRG outgrowth assay were done as described (Fournier, A. E., et al., Nature 409:341-346 (2001)) with some modifications. Briefly, 50 μl of purified GST fusion protein or peptides diluted in PBS was pipetted into polylysine precoated 96 well plates (Becton Dickson Biocoat plates) and dried overnight at room temperature. For fibroblast spreading assay, subconfluent COS-7 cells were then plated for 1 hour in serum containing medium before fixation and staining with rho damine-phalloidin.

[3] = target: T2, AP-Lingo-1 (Homo sapiens, UniProt Q96FE5); experiment: Binding of AP-Lingo-1 to COS-7 cells expressing NgR mutants; set-up: key: ++: WT level; +: weaker than wild type; trace binding; −: no binding; details: AP-Lingo-1 10 nM; level of binding compared to wild type NgR
T2 construct: made in house; NgR mutants: COS-7
T2 sequence (Q96FE5 40-538 limits assumed): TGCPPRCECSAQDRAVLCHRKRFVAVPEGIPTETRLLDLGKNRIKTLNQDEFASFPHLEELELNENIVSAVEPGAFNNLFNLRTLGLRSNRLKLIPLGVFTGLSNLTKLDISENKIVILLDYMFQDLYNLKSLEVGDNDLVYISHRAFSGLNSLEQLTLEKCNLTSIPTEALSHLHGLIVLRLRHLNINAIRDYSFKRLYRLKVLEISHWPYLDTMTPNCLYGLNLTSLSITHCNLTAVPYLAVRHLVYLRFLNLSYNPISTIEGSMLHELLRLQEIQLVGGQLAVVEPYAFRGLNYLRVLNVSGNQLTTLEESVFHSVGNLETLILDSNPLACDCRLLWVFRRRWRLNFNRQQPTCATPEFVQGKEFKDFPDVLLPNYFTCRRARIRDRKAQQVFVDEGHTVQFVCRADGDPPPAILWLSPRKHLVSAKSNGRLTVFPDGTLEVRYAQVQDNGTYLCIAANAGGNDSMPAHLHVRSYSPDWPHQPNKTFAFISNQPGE
Summary of the method: (§1)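 COS-7 cells expressing Ala-substituted human NgR1 mutants incubated with AP-fused ligands at near-Kd levels (AP-Ng66 5 nM, AP-B4C66 0.5 nM, AP-Lingo-1 10 nM, AP-OMGP 10 nM). Bound AP stained and measured as % of wild-type NgR; graded ++/+/tr/−.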

[4] = target: T3, AP-Nogo66 (Homo sapiens, UniProt Q9NQC3); experiment: Binding of AP-Nogo66 to COS-7 cells expressing NgR mutants; set-up: key: ++: WT level; +: weaker than wild type; trace binding; −: no binding; details: AP-Ng66 5 nM; level of binding compared to wild type NgR
T3 construct: made in house; NgR mutants: COS-7
T3 sequence (Q9NQC3 1055-1120 limits assumed): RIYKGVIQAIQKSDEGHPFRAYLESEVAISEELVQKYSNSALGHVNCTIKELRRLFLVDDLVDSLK
Summary of the method: as §1

[5] = target: T4, AP fusion protein with the B4C fragment of Amino-Nogo-A fused directly to Nogo-66 (human, UniProt Q9NQC3 1055-1120); experiment: AP-ligand binding, COS-7
T4 construct: domain: Nogo-66; also called AP-B4C66; AP-B4C-66; not shown: alkaline phosphatase (AP), vector pcAP6
T4 sequence: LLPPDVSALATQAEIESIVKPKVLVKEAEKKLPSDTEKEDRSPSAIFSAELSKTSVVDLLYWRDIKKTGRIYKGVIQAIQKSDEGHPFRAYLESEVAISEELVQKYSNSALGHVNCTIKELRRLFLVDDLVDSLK

[6] = target: T5, AP-fused Amino-Nogo fragment B4C (a.a. 950-1018) (human, UniProt Q9NQC3 950-1018); experiment: AP-ligand binding, COS-7
T5 construct: also called AmNg B4C; AP-B4C; not shown: alkaline phosphatase (AP), vector pcAP6
T5 sequence: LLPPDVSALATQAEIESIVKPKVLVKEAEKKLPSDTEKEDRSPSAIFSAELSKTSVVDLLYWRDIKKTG

[7] = target: T6, AP-Nogo-66 (UniProt Q9NQC3 1055-1120); experiment: AP-ligand binding, COS-7
T6 construct: domain: Nogo-66; construct described elsewhere (Fournier 2001); also called AP-Ng66; Ng66; not shown: alkaline phosphatase (AP); construct described elsewhere
T6 sequence (looked up): T3 sequence (Q9NQC3 1055-1120 limits assumed)

[8] = target: T7, AP-B4C (Homo sapiens, UniProt Q9NQC3); experiment: Binding of AP-B4C to COS-7 cells expressing NgR mutants; set-up: key: ++: WT level; +: weaker than wild type; trace binding; −: no binding; details: AP-B4C 10 nM; level of binding compared to wild type NgR
T7 construct: a.a; 950-1018 (AmNg B4C); made in house; host or cells: AP ligand: HEK293T conditioned medium; NgR mutants: COS-7
T7 sequence (Q9NQC3 950-1018): T5 sequence

[9] = test system: AP-B4C66; experiment: Binding of AP-B4C66 to COS-7 cells expressing NgR mutants; set-up: key: ++: WT level; +: weaker than wild type; trace binding; −: no binding; details: AP-B4C66 0.5 nM; level of binding compared to wild type NgR
Summary of the method: as §1

[10] = test system: AP-OMgp; experiment: Binding of AP-OMgp to COS-7 cells expressing NgR mutants; set-up: key: ++: WT level; +: weaker than wild type; trace binding; −: no binding; details: AP-OMGP 10 nM; level of binding compared to wild type NgR
Summary of the method: as §1

[11] = test system: AP-MAG; experiment: Binding of AP-MAG to COS-7 cells expressing NgR mutants; set-up: key: ++: WT level; +: weaker than wild type; trace binding; −: no binding; details: AP-MAG 30 nM; level of binding compared to wild type NgR
[12] = test system: NgR ligands; experiment: Binding of alanine substituted NgR mutants to NgR ligands, summary categories; details: AP-Nogo66, AP-B4C, AP-B4C66, AP-Lingo-1, AP-OMgp and AP-MAG; compared to wild type NgR
Summary of the method: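 Human NgR1 template; 74 mutants with 1-8 solvent-exposed charged surface residues (within 5 Å) Ala-substituted, plus glycosylation-site mutants and D259N polymorphism. Mutants tested for binding of AP-tagged Nogo66, Amino-Nogo-B4C, B4C66, MAG, OMgp and Lingo-1; each classed as losing all, keeping all, or selective ligand binding.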

binding to DRG axons/neurons [1]: binding to DRG axons
Molecule: IFSAELSKTSVVDLLYWRDIKKTG (not fully specified) [a.a. 995-1018 (Amino-Nogo-A-24), AP fusion protein of Nogo-A aa 995-1018]

NgR Kd (nM) [2]: No Binding
binding to DRG axons/neurons [1]: binds to DRG axons
B1: a.a. 181-864 (AmNg A): AP fusion protein of human Amino-Nogo fragment A, aa 181-864 of Nogo-A (protein)
chain: SSGSVDETLFALPAASEPVIRSSAENMDLKEQPGNTISAGQEDFPSVLLETAASLPSLSPLSAASFKEHEYLGNLSTVLPTEGTLQENVSEASKEVSEKAKTLLIDRDLTEFSELEYSEMGSSFSVSPKAESAVIVANPREEIIVKNKDEEEKLVSNNILHNQQELPTALTKLVKEDEVVSSEKAKDSFNEKRVAVEAPMREEYADFKPFERVWEVKDSKEDSDMLAAGGKIESNLESKVDKKCFADSLEQTNHEKDSESSNDDTSFPSTPEGIKDRSGAYITCAPFNPAATESIATNIFPLLGDPTSENKTDEKKIEEKKAQIVTEKNTSTKTSNPFLVAAQDSETDYVTTDNLTKVTEEVVANMPEGLTPDLVQEACESELNEVTGTKIAYETKMDLVQTSEVMQESLYPAAQLCPSFEESEATPSPVLPDIVMEAPLNSAVPSAGASVIQPSSSPLEASSVNYESIKHEPENPPPYEEAMSVSLKKVSGIKEEIKEPENINAALQETEAPYISIACDLIKETKLSAEPAPDFSDYSEMAKVEQPVPDHSELVEDSSPDSEPVDLFSDDSIPDVPQKQDETVMLVKESLTETSFESMIEYENKEKLSALPPEGGKPYLESFKLSLDNTKDTLLPDEVSTLSKKEKIPLQMEELSTAVYSNDDLFISKEAQIRETETFSDSSP
modifications: left off: large carriers
notes: AP fusion protein of human Amino-Nogo fragment A, aa 181-864 of Nogo-A

Lingo-1 [3]: ++
Ng66 [4]: −
binding result [5]: no binding
binding result [6]: no binding
binding result [7]: no binding
B4C [8]: −
ligand binding category of NgR mutant (Table II) [12]: Differential binding
B2: human NgR1 alanine mutant 211, 213, 237, 256, 259, 284 (receptor)
chain: CPGACVCYNEPKVTTSCPQQGLQAVPVGIPAASQRIFLHGNRISHVPAASFRACRNLTILWLHSNVLARIDAAAFTGLALLEQLDLSDNAQLRSVDPATFHGLGRLHTLHLDRCGLQELGPGLFRGLAALQYLYLQDNALQALPDDTFRDLGNLTHLFLHGNRISSVPERAFRGLHSLDRLLLHANAVAHVHPHAFRDLGRLMTLYLFANALSALPTEALAPLRALQYLALNANPWVCDCRARPLWAWLQKFRGSSSAVPCSLPQRLAGRDLKRLAANDLQGCAVATGPYHPIWTGRATDEEPLGLPKCCQPDAADKASVLEPGRPASAGNALKGRVPPGDSPPGNGSGPRHINDSPFGTLPGSAEPPLTAVRPEGSEPPGFPTSGPRRRPGCSRKNRTRSHCRLGQAGSGGGGTGDSEGSGALPSLTCSLTPLGLALVLWTVLGPC
B4C-66 [9]: −
OMgp [10]: −
MAG [11]: −

Lingo-1 [3]: ++
Ng66 [4]: −
binding result [5]: no binding
binding result [6]: no binding
binding result [7]: no binding
B4C [8]: −
ligand binding category of NgR mutant (Table II) [12]: Differential binding
B3: human NgR1 alanine mutant 189, 191, 211, 213, 237, 256, 259, 284 (receptor)
chain: B2 chain with R163A, S165A
B4C-66 [9]: −
OMgp [10]: −

From US20090111753A1, “Nogo-A Polypeptide Fragments, Variant Nogo Receptor-1 Polypeptides, and Uses Thereof” (Yale University, priority 2004, published 2009)
